The record followed here is patent publication US20240407381A1, “FOOD COMPOSITIONS COMPRISING RECOMBINANT CELLS COMPRISING TRANSCOBALAMIN” (IMAGINDAIRY LTD., priority 2021, published 2024).

This assay can be described thus: biochemical tests of B12 binding. Particulars: purified recombinant transcobalamin expressed in A. oryzae. The source says:
The entire process was scalable to produce the protein in large batches. Afterwards, the inventors feedbacked the expression information (RNAseq) to the machine learning to create better constructs until reaching optimal transcobalamin expression.

B1: transcobalamin: recombinant bovine transcobalamin secreted from A. oryzae and purified from the harvested medium; TC2 expression confirmed (protein, UniProt Q9XSC9 19-432, looked up)
Transcobalamin-2: NICEITEVDSTLVERLGQRLLPWMDRLSQEQLNPSIYVGLRLSSLQAGAKEAHYLHSLKLSYQQSLLRPASNKDDNDSEAKPSMGQLALYLLALRANCEFIGGRKGDRLVSQLKRFLEDEKRAIGHNHQGHPRTSYYQYSLGILALCVHQKRVHDSVVGKLLYAVEHKPHLLQDHVSVDTMAMAGMAFSCLELSNLNPKQRNRINLALKRVQEKILKAQTPEGYFGNVYSTPLALQLLMGSLRPSVELGTACLKAKAALQASLQHKTFQNPLMISQLLPVLNQKSYVDLISPDCQAPRALLEPALETPPQAKVPKFIDVLLKVSGISPSYRHSVSVPAGSSLEDILKNAQEHGRFRFRTQASLSGPFLTSVLGRKAGEREFWQVLRDPDTPLQQGIADYRPKDGETIELRLVGW
On to B1, for which the B12 binding result is recorded as “effective B12 binding”.
